The results in this text go back to article PMC10249358, “Elucidation of Short Linear Motif-Based Interactions of the FERM Domains of Ezrin, Radixin, Moesin, and Merlin” (Biochemistry, 2023).

The target in the test is moesin FERM domain, P26038. The test can be described thus: FP. As to conditions: modification not given.
Sequence of moesin FERM domain, P26038 (P26038 2-295): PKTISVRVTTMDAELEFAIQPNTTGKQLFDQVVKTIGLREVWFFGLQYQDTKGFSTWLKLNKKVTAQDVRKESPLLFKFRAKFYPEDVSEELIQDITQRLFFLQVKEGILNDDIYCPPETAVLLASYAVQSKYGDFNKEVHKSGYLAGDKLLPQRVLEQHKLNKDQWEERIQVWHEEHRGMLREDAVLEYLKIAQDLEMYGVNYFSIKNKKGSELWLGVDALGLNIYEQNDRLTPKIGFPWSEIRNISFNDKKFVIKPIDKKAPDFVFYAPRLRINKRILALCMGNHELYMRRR
On to TNGYYSVNTFKEHHST, for which the Kd – broadly, a measure of binding affinity in units of concentration – stood at 100 nM.
LEAADFYDFRSSYPDH displayed a dissociation constant Kd of 2300 nM.
As for LEFADAYDFRSSYPDH, the Kd was determined as 85000 nM.
To TNGAYSVNTFKEHHST belongs 110 nM.
As for LEFADFYDFRSSAPDH, the dissociation constant (Kd) came to 2800 nM.
On to LEFADFYAFRSSYPDH, for which the Kd worked out at 50000 nM.
